From publication PMC4209800

Columns and labels:
[1] = target: human FcγRIIIa of allotype 158F, GPI-anchored (human) (UniProt P08637); test: flow cytometry on cells; IgG pre-complexed with equimolar goat F(ab')2 against its light chain (anti-κ for Fog-1, anti-λ for B2), on CHO cells expressing a single human FcγRII or FcγRIII; complexes detected with FITC anti-goat IgG; mean fluorescence of ≥12 000 cells
[2] = target: human FcγRIIIa of allotype 158V, GPI-anchored (human); test: as above

UniProt P08637, sequence (P08637 17-254): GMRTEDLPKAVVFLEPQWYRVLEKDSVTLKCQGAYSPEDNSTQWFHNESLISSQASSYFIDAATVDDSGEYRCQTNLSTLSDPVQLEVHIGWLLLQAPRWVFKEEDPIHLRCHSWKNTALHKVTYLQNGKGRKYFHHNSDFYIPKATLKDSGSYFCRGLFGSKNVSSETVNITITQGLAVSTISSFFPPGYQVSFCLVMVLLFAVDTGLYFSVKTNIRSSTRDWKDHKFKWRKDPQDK

Substance: B2 G1Δnab (antibody)
- fold lower binding than G1 [1]: 100 fold
- fold lower binding than G1 [2]: 50 fold
